Patent US20190185537A1 (AstraZeneca / MedImmune, published 2019)
Numbered stars: 1 amine (or outer) side, 2 acyl side, 3 side chain; on linkers, the order of the positions; unused ones are H or OH. Side chains are listed from the residue outwards. Ends that are not written are not given here. * marks the point of attachment. γGlu = O=C(O)[C@H](CCC(=O)[*:2])N[*:1]; Palmitoyl = CCCCCCCCCCCCCCCC(=O)*; βAla = NCCC(=O)O

T1: human glucose-dependent insulinotropic peptide (gastric inhibitory polypeptide) receptor (human) (UniProt P48546)
T1 sequence (looked up): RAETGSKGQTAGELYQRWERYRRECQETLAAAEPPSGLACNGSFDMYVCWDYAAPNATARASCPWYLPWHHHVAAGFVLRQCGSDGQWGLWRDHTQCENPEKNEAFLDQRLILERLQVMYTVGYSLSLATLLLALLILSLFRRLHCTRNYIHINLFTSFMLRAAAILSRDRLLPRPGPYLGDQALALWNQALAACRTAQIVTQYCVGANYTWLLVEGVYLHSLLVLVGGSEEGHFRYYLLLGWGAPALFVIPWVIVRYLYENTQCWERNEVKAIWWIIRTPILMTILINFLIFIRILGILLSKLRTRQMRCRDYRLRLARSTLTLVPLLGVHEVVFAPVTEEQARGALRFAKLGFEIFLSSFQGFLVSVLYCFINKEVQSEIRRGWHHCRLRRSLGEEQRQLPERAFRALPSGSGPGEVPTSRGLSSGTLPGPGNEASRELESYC


Key:
Experiment in all cases: cell-based or functional assay
human glucagon receptor = human glucagon receptor (human, UniProt P47871 26-477)
[1] = target: T1, human glucose-dependent insulinotropic peptide (gastric inhibitory polypeptide) receptor (human)
human GLP-1 receptor = human GLP-1 receptor (human, UniProt P43220 24-463)
Chain of human GLP-1 receptor (P43220 24-463): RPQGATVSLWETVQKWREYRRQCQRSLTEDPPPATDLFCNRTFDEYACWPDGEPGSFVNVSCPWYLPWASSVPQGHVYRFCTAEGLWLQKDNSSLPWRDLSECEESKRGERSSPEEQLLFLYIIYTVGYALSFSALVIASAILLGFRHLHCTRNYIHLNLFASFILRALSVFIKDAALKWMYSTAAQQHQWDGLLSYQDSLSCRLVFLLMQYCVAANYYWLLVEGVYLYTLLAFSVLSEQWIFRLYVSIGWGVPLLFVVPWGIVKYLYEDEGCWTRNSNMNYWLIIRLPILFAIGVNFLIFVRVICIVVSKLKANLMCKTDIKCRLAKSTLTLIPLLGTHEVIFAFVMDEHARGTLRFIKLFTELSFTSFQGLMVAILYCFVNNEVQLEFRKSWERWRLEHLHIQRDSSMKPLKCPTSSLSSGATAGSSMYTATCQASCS

Chain of human glucagon receptor (P47871 26-477): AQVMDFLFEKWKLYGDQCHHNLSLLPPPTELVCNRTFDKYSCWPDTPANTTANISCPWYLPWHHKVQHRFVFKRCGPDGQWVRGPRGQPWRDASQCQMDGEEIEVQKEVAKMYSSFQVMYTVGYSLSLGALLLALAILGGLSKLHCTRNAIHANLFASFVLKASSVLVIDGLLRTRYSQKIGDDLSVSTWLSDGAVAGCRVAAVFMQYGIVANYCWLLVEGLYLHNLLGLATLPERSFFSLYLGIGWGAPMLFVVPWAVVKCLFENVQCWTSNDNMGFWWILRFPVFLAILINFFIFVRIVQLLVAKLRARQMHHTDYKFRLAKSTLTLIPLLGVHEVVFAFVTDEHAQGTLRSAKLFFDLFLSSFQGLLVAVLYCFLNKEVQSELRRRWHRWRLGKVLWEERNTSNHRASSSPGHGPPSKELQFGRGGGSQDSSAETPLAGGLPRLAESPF

Row | cAMP EC50 (assay 1) (human glucagon receptor) [nM] | cAMP EC50 (assay 1) [1] [nM] | cAMP EC50 (assay 1) (human GLP-1 receptor) [nM] | Binder
1 | 0.156 | 1430 | 0.0254 | HSQGTFTSDYSKYLDSRK([γGlu-Palmitoyl])ARDFVAWLEAGG-NH2 (N-terminus assumed; SMILES CCCCCCCCCCCCCCCC(=O)N[C@@H](CCC(=O)NCCCC[C@H](NC(=O)[C@H](CCCNC(=N)N)NC(=O)[C@H](CO)NC(=O)[C@H](CC(=O)O)NC(=O)[C@H](CC(C)C)NC(=O)[C@H](Cc1ccc(O)cc1)NC(=O)[C@H](CCCCN)NC(=O)[C@H](CO)NC(=O)[C@H](Cc1ccc(O)cc1)NC(=O)[C@H](CC(=O)O)NC(=O)[C@H](CO)NC(=O)[C@@H](NC(=O)[C@H](Cc1ccccc1)NC(=O)[C@@H](NC(=O)CNC(=O)[C@H](CCC(N)=O)NC(=O)[C@H](CO)NC(=O)[C@@H](N)Cc1c[nH]cn1)[C@@H](C)O)[C@@H](C)O)C(=O)N[C@@H](C)C(=O)N[C@@H](CCCNC(=N)N)C(=O)N[C@@H](CC(=O)O)C(=O)N[C@@H](Cc1ccccc1)C(=O)N[C@H](C(=O)N[C@@H](C)C(=O)N[C@@H](Cc1c[nH]c2ccccc12)C(=O)N[C@@H](CC(C)C)C(=O)N[C@@H](CCC(=O)O)C(=O)N[C@@H](C)C(=O)NCC(=O)NCC(N)=O)C(C)C)C(=O)O) [g782]
2 | 0.00195 | 99.7 | 0.0715 | HSQGTFTSDYSKYK([γGlu-Palmitoyl])DSRRARDFVAWLEA-NH2 (N-terminus assumed; SMILES CCCCCCCCCCCCCCCC(=O)N[C@@H](CCC(=O)NCCCC[C@H](NC(=O)[C@H](Cc1ccc(O)cc1)NC(=O)[C@H](CCCCN)NC(=O)[C@H](CO)NC(=O)[C@H](Cc1ccc(O)cc1)NC(=O)[C@H](CC(=O)O)NC(=O)[C@H](CO)NC(=O)[C@@H](NC(=O)[C@H](Cc1ccccc1)NC(=O)[C@@H](NC(=O)CNC(=O)[C@H](CCC(N)=O)NC(=O)[C@H](CO)NC(=O)[C@@H](N)Cc1c[nH]cn1)[C@@H](C)O)[C@@H](C)O)C(=O)N[C@@H](CC(=O)O)C(=O)N[C@@H](CO)C(=O)N[C@@H](CCCNC(=N)N)C(=O)N[C@@H](CCCNC(=N)N)C(=O)N[C@@H](C)C(=O)N[C@@H](CCCNC(=N)N)C(=O)N[C@@H](CC(=O)O)C(=O)N[C@@H](Cc1ccccc1)C(=O)N[C@H](C(=O)N[C@@H](C)C(=O)N[C@@H](Cc1c[nH]c2ccccc12)C(=O)N[C@@H](CC(C)C)C(=O)N[C@@H](CCC(=O)O)C(=O)N[C@@H](C)C(N)=O)C(C)C)C(=O)O) [g804]
3 | 0.00286 | 402 | 0.104 | HSQGTFTSDYSKYLDK([γGlu-Palmitoyl])RRARDFVAWLEAGG-NH2 (N-terminus assumed; SMILES CCCCCCCCCCCCCCCC(=O)N[C@@H](CCC(=O)NCCCC[C@H](NC(=O)[C@H](CC(=O)O)NC(=O)[C@H](CC(C)C)NC(=O)[C@H](Cc1ccc(O)cc1)NC(=O)[C@H](CCCCN)NC(=O)[C@H](CO)NC(=O)[C@H](Cc1ccc(O)cc1)NC(=O)[C@H](CC(=O)O)NC(=O)[C@H](CO)NC(=O)[C@@H](NC(=O)[C@H](Cc1ccccc1)NC(=O)[C@@H](NC(=O)CNC(=O)[C@H](CCC(N)=O)NC(=O)[C@H](CO)NC(=O)[C@@H](N)Cc1c[nH]cn1)[C@@H](C)O)[C@@H](C)O)C(=O)N[C@@H](CCCNC(=N)N)C(=O)N[C@@H](CCCNC(=N)N)C(=O)N[C@@H](C)C(=O)N[C@@H](CCCNC(=N)N)C(=O)N[C@@H](CC(=O)O)C(=O)N[C@@H](Cc1ccccc1)C(=O)N[C@H](C(=O)N[C@@H](C)C(=O)N[C@@H](Cc1c[nH]c2ccccc12)C(=O)N[C@@H](CC(C)C)C(=O)N[C@@H](CCC(=O)O)C(=O)N[C@@H](C)C(=O)NCC(=O)NCC(N)=O)C(C)C)C(=O)O) [g781]
4 | 0.0606 | 407 | 0.098 | HGQGTFTSDYSKYLDSK([γGlu-Palmitoyl])RAQDFVQWLEAGG-NH2 (N-terminus assumed; SMILES CCCCCCCCCCCCCCCC(=O)N[C@@H](CCC(=O)NCCCC[C@H](NC(=O)[C@H](CO)NC(=O)[C@H](CC(=O)O)NC(=O)[C@H](CC(C)C)NC(=O)[C@H](Cc1ccc(O)cc1)NC(=O)[C@H](CCCCN)NC(=O)[C@H](CO)NC(=O)[C@H](Cc1ccc(O)cc1)NC(=O)[C@H](CC(=O)O)NC(=O)[C@H](CO)NC(=O)[C@@H](NC(=O)[C@H](Cc1ccccc1)NC(=O)[C@@H](NC(=O)CNC(=O)[C@H](CCC(N)=O)NC(=O)CNC(=O)[C@@H](N)Cc1c[nH]cn1)[C@@H](C)O)[C@@H](C)O)C(=O)N[C@@H](CCCNC(=N)N)C(=O)N[C@@H](C)C(=O)N[C@@H](CCC(N)=O)C(=O)N[C@@H](CC(=O)O)C(=O)N[C@@H](Cc1ccccc1)C(=O)N[C@H](C(=O)N[C@@H](CCC(N)=O)C(=O)N[C@@H](Cc1c[nH]c2ccccc12)C(=O)N[C@@H](CC(C)C)C(=O)N[C@@H](CCC(=O)O)C(=O)N[C@@H](C)C(=O)NCC(=O)NCC(N)=O)C(C)C)C(=O)O) [g512]
5 | 0.723 | 298 | 0.175 | HSEGTFTSDYSKYLDSK([γGlu-Palmitoyl])RAQDFVQWLEAGG-NH2 (N-terminus assumed; SMILES CCCCCCCCCCCCCCCC(=O)N[C@@H](CCC(=O)NCCCC[C@H](NC(=O)[C@H](CO)NC(=O)[C@H](CC(=O)O)NC(=O)[C@H](CC(C)C)NC(=O)[C@H](Cc1ccc(O)cc1)NC(=O)[C@H](CCCCN)NC(=O)[C@H](CO)NC(=O)[C@H](Cc1ccc(O)cc1)NC(=O)[C@H](CC(=O)O)NC(=O)[C@H](CO)NC(=O)[C@@H](NC(=O)[C@H](Cc1ccccc1)NC(=O)[C@@H](NC(=O)CNC(=O)[C@H](CCC(=O)O)NC(=O)[C@H](CO)NC(=O)[C@@H](N)Cc1c[nH]cn1)[C@@H](C)O)[C@@H](C)O)C(=O)N[C@@H](CCCNC(=N)N)C(=O)N[C@@H](C)C(=O)N[C@@H](CCC(N)=O)C(=O)N[C@@H](CC(=O)O)C(=O)N[C@@H](Cc1ccccc1)C(=O)N[C@H](C(=O)N[C@@H](CCC(N)=O)C(=O)N[C@@H](Cc1c[nH]c2ccccc12)C(=O)N[C@@H](CC(C)C)C(=O)N[C@@H](CCC(=O)O)C(=O)N[C@@H](C)C(=O)NCC(=O)NCC(N)=O)C(C)C)C(=O)O) [g513]
6 | 82.8 | 1170 | 0.0695 | HSEGTFTSDYSEYLDSK([βAla-Palmitoyl])RARDFVAWLEAGG-NH2 (N-terminus assumed; SMILES CCCCCCCCCCCCCCCC(=O)NCCC(=O)NCCCC[C@H](NC(=O)[C@H](CO)NC(=O)[C@H](CC(=O)O)NC(=O)[C@H](CC(C)C)NC(=O)[C@H](Cc1ccc(O)cc1)NC(=O)[C@H](CCC(=O)O)NC(=O)[C@H](CO)NC(=O)[C@H](Cc1ccc(O)cc1)NC(=O)[C@H](CC(=O)O)NC(=O)[C@H](CO)NC(=O)[C@@H](NC(=O)[C@H](Cc1ccccc1)NC(=O)[C@@H](NC(=O)CNC(=O)[C@H](CCC(=O)O)NC(=O)[C@H](CO)NC(=O)[C@@H](N)Cc1c[nH]cn1)[C@@H](C)O)[C@@H](C)O)C(=O)N[C@@H](CCCNC(=N)N)C(=O)N[C@@H](C)C(=O)N[C@@H](CCCNC(=N)N)C(=O)N[C@@H](CC(=O)O)C(=O)N[C@@H](Cc1ccccc1)C(=O)N[C@H](C(=O)N[C@@H](C)C(=O)N[C@@H](Cc1c[nH]c2ccccc12)C(=O)N[C@@H](CC(C)C)C(=O)N[C@@H](CCC(=O)O)C(=O)N[C@@H](C)C(=O)NCC(=O)NCC(N)=O)C(C)C) [g734]
7 | 0.0942 | 1040 | 3.16 | HSQGTFTSDYSKYLDSRRAQDFVQWLEAGGK([γGlu-Palmitoyl])-NH2 (N-terminus assumed; SMILES CCCCCCCCCCCCCCCC(=O)N[C@@H](CCC(=O)NCCCC[C@H](NC(=O)CNC(=O)CNC(=O)[C@H](C)NC(=O)[C@H](CCC(=O)O)NC(=O)[C@H](CC(C)C)NC(=O)[C@H](Cc1c[nH]c2ccccc12)NC(=O)[C@H](CCC(N)=O)NC(=O)[C@@H](NC(=O)[C@H](Cc1ccccc1)NC(=O)[C@H](CC(=O)O)NC(=O)[C@H](CCC(N)=O)NC(=O)[C@H](C)NC(=O)[C@H](CCCNC(=N)N)NC(=O)[C@H](CCCNC(=N)N)NC(=O)[C@H](CO)NC(=O)[C@H](CC(=O)O)NC(=O)[C@H](CC(C)C)NC(=O)[C@H](Cc1ccc(O)cc1)NC(=O)[C@H](CCCCN)NC(=O)[C@H](CO)NC(=O)[C@H](Cc1ccc(O)cc1)NC(=O)[C@H](CC(=O)O)NC(=O)[C@H](CO)NC(=O)[C@@H](NC(=O)[C@H](Cc1ccccc1)NC(=O)[C@@H](NC(=O)CNC(=O)[C@H](CCC(N)=O)NC(=O)[C@H](CO)NC(=O)[C@@H](N)Cc1c[nH]cn1)[C@@H](C)O)[C@@H](C)O)C(C)C)C(N)=O)C(=O)O) [g747]
